What all share (assay): Kinase Profiling Assay
What all share (type): biochemical
Settings in all cases: 100 μM peptide

One assay has as its target CHK2(R145W)(h) (Homo sapiens, UniProt O96017, R145W). The essentials:
(§1)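 Selectivity profiling: MK2-targeting peptides tested on 266 human kinases. All activity determinations done in duplicate.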

For a further assay, the target named is T1, DMPK(h) (Homo sapiens, UniProt Q09013).
T1 sequence (Q09013 1-629): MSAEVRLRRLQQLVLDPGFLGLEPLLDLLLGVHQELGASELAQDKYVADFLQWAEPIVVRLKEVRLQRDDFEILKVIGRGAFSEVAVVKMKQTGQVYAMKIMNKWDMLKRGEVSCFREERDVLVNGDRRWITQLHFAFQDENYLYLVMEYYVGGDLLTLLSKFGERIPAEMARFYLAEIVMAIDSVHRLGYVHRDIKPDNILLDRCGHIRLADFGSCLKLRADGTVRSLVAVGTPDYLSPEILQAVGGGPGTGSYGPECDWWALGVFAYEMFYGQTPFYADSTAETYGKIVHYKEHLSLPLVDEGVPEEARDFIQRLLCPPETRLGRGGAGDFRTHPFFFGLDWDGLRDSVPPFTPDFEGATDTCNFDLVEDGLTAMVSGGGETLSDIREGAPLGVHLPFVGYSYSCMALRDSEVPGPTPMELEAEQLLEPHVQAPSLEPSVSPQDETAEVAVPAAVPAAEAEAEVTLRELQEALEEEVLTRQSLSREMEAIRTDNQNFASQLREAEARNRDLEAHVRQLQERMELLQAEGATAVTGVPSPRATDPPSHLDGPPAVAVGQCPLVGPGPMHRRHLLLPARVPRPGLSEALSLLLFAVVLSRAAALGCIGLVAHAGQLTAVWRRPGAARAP
An outline of the steps:
as §1

The next assay has as its target Fgr(h) (Homo sapiens, UniProt P09769). An outline of the steps: as §1
The target of another assay is Fyn(h) (Homo sapiens, UniProt P06241). An outline of the steps:
as §1

For the next assay, the target named is Lyn(h) (Homo sapiens, UniProt P07948). An outline of the steps:
as §1

In the next assay the target is Met(M1268T)(h) (Homo sapiens, UniProt P08581, M1250T). An outline of the steps:
as §1

The target of another assay is PAK5(h) (Homo sapiens, UniProt Q9P286). An outline of the steps: as §1
A further assay addresses PDGFRα(h) (Homo sapiens, UniProt P16234). An outline of the steps: as §1
The target of a further assay is PKCη(h) (Homo sapiens, UniProt P24723). The essentials: as §1
A further assay deals with T2, Ret(h) (Homo sapiens, UniProt P07949).
T2 construct: purchased Millipore (IC50 Profiler Express service)
The essentials:
as §1

A further assay concerns the target T3, SGK3(h) (Homo sapiens, UniProt Q96BR1).
T3 sequence (Q96BR1 1-496): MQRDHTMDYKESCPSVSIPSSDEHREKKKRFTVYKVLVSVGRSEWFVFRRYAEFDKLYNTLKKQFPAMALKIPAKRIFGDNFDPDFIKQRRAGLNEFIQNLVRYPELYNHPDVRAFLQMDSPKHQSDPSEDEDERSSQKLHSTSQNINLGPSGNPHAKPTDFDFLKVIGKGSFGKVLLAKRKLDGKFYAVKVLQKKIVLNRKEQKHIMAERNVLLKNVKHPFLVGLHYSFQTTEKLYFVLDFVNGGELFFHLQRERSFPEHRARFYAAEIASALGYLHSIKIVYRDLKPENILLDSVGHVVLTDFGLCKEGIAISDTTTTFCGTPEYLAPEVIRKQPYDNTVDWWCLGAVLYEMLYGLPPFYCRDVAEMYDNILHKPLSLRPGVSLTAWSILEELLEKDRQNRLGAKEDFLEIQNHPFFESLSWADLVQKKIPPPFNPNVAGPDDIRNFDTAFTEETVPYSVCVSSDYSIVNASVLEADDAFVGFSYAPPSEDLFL
The essentials: as §1

The target of another assay is mTOR(h) (Homo sapiens, UniProt P42345). The essentials:
as §1

The next assay addresses mTOR/FKBP12(h) (Homo sapiens, UniProt P42345). The essentials:
as §1

Another assay has as its target CDK2/cyclinA(h) (Homo sapiens, UniProt P24941). The essentials:
as §1

A further assay deals with Flt3(D835Y)(h) (Homo sapiens, UniProt P36888, D835Y). An outline of the steps: as §1
A further assay has as its target Mnk2(h) (Homo sapiens, UniProt Q9HBH9). The essentials: as §1
A further assay has as its target T4, Ret(V804M)(h) (Homo sapiens, UniProt P07949, V804M).
T4 construct: purchased Millipore (IC50 Profiler Express service)
The essentials:
as §1

Another assay concerns the target T5, SGK2(h) (Homo sapiens, UniProt Q9HBY8).
T5 sequence (Q9HBY8 1-367): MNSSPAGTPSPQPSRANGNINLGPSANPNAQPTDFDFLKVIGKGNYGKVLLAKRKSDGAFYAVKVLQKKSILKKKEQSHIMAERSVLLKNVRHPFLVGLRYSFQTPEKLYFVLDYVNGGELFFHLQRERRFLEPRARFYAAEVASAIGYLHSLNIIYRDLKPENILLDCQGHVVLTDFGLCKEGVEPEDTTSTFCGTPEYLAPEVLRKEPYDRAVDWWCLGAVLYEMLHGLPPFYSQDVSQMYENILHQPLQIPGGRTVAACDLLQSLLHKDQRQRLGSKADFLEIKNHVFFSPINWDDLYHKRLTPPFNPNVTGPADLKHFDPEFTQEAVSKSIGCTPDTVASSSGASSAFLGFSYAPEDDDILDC
The essentials: as §1

For another assay, the target named is TrkA(h) (Homo sapiens, UniProt P04629). The essentials: as §1
TrkA(h), sequence (P04629 33-796): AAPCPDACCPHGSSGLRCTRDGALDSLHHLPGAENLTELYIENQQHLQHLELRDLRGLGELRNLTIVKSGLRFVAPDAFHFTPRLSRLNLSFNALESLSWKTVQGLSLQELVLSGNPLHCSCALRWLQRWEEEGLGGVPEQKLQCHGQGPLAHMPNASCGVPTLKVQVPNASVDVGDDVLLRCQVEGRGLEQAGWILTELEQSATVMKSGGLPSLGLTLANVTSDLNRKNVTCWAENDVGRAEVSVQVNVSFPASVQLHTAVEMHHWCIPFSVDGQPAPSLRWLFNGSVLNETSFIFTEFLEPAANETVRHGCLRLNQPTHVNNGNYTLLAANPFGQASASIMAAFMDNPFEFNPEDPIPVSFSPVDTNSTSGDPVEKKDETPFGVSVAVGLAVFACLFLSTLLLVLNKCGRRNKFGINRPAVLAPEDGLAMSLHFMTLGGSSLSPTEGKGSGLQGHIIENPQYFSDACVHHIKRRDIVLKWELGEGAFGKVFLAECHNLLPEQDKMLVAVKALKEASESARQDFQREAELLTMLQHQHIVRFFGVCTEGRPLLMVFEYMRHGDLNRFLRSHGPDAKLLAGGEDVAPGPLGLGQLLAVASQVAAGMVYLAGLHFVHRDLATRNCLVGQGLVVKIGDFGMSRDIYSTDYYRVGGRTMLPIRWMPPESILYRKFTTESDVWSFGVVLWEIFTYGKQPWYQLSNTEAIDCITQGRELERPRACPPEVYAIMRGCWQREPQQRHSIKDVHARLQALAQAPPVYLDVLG

Lyn(h), sequence (P07948 whole entry): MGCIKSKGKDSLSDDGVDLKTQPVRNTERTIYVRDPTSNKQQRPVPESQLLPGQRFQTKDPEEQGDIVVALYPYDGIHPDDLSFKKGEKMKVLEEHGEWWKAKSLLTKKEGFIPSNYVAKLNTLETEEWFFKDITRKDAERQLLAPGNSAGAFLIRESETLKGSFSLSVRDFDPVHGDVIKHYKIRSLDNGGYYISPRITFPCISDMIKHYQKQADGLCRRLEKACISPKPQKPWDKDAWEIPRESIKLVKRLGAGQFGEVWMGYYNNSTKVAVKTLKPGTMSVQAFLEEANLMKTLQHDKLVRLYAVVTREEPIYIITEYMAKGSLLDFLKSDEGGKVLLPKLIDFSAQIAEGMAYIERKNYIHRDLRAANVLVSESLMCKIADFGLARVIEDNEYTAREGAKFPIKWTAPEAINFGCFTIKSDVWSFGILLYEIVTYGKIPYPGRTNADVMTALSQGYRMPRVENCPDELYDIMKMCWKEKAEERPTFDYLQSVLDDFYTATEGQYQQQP
CHK2(R145W)(h), sequence (O96017 whole entry R145W): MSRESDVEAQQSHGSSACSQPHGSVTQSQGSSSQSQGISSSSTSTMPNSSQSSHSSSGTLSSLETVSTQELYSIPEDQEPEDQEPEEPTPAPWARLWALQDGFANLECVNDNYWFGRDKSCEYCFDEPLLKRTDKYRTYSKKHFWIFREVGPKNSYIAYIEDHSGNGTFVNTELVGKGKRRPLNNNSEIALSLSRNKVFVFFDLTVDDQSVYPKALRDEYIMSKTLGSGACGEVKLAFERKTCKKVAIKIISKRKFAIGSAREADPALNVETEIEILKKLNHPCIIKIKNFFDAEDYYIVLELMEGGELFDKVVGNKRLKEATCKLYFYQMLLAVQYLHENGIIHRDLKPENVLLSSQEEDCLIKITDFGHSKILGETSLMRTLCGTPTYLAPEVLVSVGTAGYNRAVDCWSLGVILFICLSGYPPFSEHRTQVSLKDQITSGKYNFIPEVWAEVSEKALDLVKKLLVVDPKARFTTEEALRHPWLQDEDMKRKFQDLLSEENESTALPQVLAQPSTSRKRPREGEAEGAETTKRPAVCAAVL
PDGFRα(h), sequence (P16234 24-1089): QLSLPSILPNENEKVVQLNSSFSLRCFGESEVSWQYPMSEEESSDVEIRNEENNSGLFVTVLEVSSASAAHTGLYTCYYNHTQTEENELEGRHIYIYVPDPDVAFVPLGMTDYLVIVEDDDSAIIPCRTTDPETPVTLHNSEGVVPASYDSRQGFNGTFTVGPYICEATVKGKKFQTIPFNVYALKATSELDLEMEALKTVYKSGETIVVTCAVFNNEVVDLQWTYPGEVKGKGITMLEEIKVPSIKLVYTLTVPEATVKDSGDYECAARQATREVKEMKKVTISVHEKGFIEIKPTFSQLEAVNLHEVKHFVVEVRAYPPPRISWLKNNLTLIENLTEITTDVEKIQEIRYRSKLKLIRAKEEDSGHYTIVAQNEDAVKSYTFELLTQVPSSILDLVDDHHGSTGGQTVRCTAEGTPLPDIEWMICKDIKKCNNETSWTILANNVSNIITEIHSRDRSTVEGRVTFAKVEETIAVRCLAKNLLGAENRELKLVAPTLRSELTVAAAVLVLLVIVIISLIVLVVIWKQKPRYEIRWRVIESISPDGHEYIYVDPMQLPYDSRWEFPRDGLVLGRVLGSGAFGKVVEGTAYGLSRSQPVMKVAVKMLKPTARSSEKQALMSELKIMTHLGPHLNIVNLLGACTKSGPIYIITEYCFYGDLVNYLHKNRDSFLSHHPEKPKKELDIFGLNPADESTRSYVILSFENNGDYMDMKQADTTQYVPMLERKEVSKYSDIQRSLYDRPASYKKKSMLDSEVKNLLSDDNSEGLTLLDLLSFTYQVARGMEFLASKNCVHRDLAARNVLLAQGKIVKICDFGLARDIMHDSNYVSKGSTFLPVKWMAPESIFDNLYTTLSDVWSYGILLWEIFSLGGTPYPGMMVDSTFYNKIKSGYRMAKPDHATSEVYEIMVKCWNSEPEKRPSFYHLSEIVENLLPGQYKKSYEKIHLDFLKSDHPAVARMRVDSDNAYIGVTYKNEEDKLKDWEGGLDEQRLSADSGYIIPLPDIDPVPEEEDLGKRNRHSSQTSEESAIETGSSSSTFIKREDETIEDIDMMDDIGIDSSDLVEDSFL
Fyn(h), sequence (P06241 whole entry): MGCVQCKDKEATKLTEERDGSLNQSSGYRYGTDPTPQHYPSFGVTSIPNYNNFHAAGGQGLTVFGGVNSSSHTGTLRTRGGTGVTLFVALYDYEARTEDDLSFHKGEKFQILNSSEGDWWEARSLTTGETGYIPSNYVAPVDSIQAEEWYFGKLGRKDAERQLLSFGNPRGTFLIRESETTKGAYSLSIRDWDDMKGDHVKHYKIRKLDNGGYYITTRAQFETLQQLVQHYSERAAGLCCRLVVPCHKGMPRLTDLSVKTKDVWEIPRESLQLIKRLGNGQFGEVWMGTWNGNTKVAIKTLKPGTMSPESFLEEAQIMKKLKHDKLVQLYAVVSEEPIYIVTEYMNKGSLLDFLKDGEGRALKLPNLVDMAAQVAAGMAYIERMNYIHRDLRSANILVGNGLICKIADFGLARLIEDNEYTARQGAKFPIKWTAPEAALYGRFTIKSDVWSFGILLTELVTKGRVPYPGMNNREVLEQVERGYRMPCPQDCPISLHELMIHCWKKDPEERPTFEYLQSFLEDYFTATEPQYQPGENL
PKCη(h), sequence (P24723 whole entry): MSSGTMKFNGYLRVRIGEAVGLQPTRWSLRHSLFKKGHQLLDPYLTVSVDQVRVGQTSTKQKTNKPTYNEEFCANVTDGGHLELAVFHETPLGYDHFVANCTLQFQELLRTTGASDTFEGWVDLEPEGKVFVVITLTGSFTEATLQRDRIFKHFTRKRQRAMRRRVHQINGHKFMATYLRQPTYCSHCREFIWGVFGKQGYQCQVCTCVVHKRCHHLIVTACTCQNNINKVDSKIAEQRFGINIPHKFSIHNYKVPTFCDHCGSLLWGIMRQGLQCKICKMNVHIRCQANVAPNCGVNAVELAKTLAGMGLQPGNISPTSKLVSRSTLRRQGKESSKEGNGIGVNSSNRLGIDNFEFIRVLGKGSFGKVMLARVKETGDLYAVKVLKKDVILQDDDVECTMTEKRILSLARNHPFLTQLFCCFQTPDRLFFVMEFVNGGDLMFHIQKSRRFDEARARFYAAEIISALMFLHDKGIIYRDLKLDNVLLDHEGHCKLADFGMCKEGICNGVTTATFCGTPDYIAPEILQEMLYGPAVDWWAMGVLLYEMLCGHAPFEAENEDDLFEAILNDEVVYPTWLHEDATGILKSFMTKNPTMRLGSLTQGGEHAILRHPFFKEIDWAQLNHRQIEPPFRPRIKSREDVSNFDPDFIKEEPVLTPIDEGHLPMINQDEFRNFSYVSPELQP
Mnk2(h), sequence (Q9HBH9 whole entry): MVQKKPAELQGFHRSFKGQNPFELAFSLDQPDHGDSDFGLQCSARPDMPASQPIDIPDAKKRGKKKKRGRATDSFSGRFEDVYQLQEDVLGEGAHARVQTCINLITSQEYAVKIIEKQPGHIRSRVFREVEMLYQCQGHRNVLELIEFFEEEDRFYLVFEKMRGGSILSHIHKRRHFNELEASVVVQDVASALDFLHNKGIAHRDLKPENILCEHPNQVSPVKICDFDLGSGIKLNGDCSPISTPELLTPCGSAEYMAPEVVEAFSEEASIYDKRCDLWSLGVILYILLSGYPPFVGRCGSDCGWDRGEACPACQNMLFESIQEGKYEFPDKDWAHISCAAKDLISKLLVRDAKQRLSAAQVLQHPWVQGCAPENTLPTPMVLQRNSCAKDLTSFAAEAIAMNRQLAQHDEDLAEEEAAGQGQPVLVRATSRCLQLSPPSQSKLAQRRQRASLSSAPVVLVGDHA

On to “YARAAARQARAKALNRQLGVA (Mammalian) [MMI-0200]”, for which the “CHK2(R145W)(h) % activity” value with CHK2(R145W)(h) was 81%. Further, in the assay with DMPK(h), the “DMPK(h) % activity” value came out at 66%. In addition, in the assay with Fgr(h), the “Fgr(h) % activity” value was determined as 71%. Further, in the assay with Fyn(h), the “Fyn(h) % activity” value was 75%. Further, the “Lyn(h) % activity” value with Lyn(h) worked out at 98%. Besides, the “Met(M1268T)(h) % activity” value in the assay with Met(M1268T)(h) was found to be 143%. Besides, in the assay with PAK5(h), the “PAK5(h) % activity” value is 100%. In addition, the “PDGFRα(h) % activity” value with PDGFRα(h) worked out at 108%. Besides, the “PKCη(h) % activity” value with PKCη(h) is given as 101%. Further, the “Ret(h) % activity” value with Ret(h) amounted to 96%. For the same sequence, the “SGK3(h) % activity” value with SGK3(h) is listed as 58%. In the assay with mTOR(h), the “mTOR(h) % activity” value came to 110%. For the same sequence, the “mTOR/FKBP12(h) % activity” value with mTOR/FKBP12(h) is on record as 118%.

Regarding “HRRIKAWLKKIKALARQLGVAA (Mammalian) [MMI-0500]”, in the assay with CDK2/cyclinA(h), the “CDK2/cyclinA(h) % activity” value stood at 87%. The “CHK2(R145W)(h) % activity” value in the assay with CHK2(R145W)(h) is recorded as 3%. In the assay with DMPK(h), the “DMPK(h) % activity” value was found to be 12%. Further, the “Flt3(D835Y)(h) % activity” value in the assay with Flt3(D835Y)(h) is given as 65%. Also, the “Fyn(h) % activity” value in the assay with Fyn(h) is reported as 83%. Moreover, the “Lyn(h) % activity” value with Lyn(h) was 31%. Further, the “Met(M1268T)(h) % activity” value in the assay with Met(M1268T)(h) came to 239%. Also, the “Mnk2(h) % activity” value with Mnk2(h) came out at 6%. Also, the “PAK5(h) % activity” value in the assay with PAK5(h) is given as 125%. The “PDGFRα(h) % activity” value in the assay with PDGFRα(h) was determined as 40%. Further, the “PKCη(h) % activity” value with PKCη(h) worked out at 45%. Further, in the assay with Ret(V804M)(h), the “Ret(V804M)(h) % activity” value came out at 36%. Moreover, the “Ret(h) % activity” value with Ret(h) is given as 174%. Further, in the assay with SGK2(h), the “SGK2(h) % activity” value was −1%. Also, the “SGK3(h) % activity” value with SGK3(h) is listed as −3%. For the same sequence, the “TrkA(h) % activity” value with TrkA(h) was determined as 24%. Besides, in the assay with mTOR(h), the “mTOR(h) % activity” value came out at 135%. Also, the “mTOR/FKBP12(h) % activity” value with mTOR/FKBP12(h) came to 140%.

For the sequence KAFAKLAARLYRKALARQLGVAA [MMI-0400], the “CDK2/cyclinA(h) % activity” value in the assay with CDK2/cyclinA(h) is recorded as 92%. The “CHK2(R145W)(h) % activity” value in the assay with CHK2(R145W)(h) turned out to be 31%. The “DMPK(h) % activity” value with DMPK(h) was 54%. Also, the “Fgr(h) % activity” value in the assay with Fgr(h) stood at 47%. Also, the “Flt3(D835Y)(h) % activity” value with Flt3(D835Y)(h) came out at 71%. In addition, in the assay with Fyn(h), the “Fyn(h) % activity” value is reported as 54%. In addition, in the assay with Lyn(h), the “Lyn(h) % activity” value turned out to be 3%. Also, the “Met(M1268T)(h) % activity” value with Met(M1268T)(h) stood at 265%. Besides, in the assay with Mnk2(h), the “Mnk2(h) % activity” value came to 86%. In addition, in the assay with PDGFRα(h), the “PDGFRα(h) % activity” value is listed as 40%. In addition, the “PKCη(h) % activity” value with PKCη(h) stood at 98%. Besides, the “Ret(V804M)(h) % activity” value in the assay with Ret(V804M)(h) came out at 87%. Moreover, the “Ret(h) % activity” value with Ret(h) stood at 145%. For the same sequence, the “SGK2(h) % activity” value in the assay with SGK2(h) is given as 98%. Moreover, the “SGK3(h) % activity” value with SGK3(h) is listed as 8%. Also, in the assay with TrkA(h), the “TrkA(h) % activity” value was determined as 17%. Further, the “mTOR(h) % activity” value with mTOR(h) came to 93%. The “mTOR/FKBP12(h) % activity” value in the assay with mTOR/FKBP12(h) worked out at 125%.

Take FAKLAARLYRKALARQLGVAA [MMI-0300]: in the assay with CDK2/cyclinA(h), the “CDK2/cyclinA(h) % activity” value is recorded as 86%. Besides, the “CHK2(R145W)(h) % activity” value with CHK2(R145W)(h) is listed as 33%. For the same sequence, in the assay with DMPK(h), the “DMPK(h) % activity” value stood at 59%. Also, the “Fgr(h) % activity” value in the assay with Fgr(h) was 60%. In addition, the “Flt3(D835Y)(h) % activity” value in the assay with Flt3(D835Y)(h) amounted to 80%. The “Fyn(h) % activity” value with Fyn(h) was determined as 74%. Further, the “Lyn(h) % activity” value in the assay with Lyn(h) is given as 69%. In addition, the “Met(M1268T)(h) % activity” value with Met(M1268T)(h) is given as 255%. For the same sequence, the “Mnk2(h) % activity” value with Mnk2(h) turned out to be 89%. Besides, the “PAK5(h) % activity” value in the assay with PAK5(h) came to 110%. Moreover, the “PDGFRα(h) % activity” value with PDGFRα(h) worked out at 65%. Also, the “Ret(V804M)(h) % activity” value with Ret(V804M)(h) was 95%. For the same sequence, the “Ret(h) % activity” value in the assay with Ret(h) came to 140%. In the assay with SGK2(h), the “SGK2(h) % activity” value was found to be 56%. In addition, in the assay with SGK3(h), the “SGK3(h) % activity” value is reported as 10%. Moreover, the “TrkA(h) % activity” value with TrkA(h) was 25%. Moreover, the “mTOR(h) % activity” value in the assay with mTOR(h) is on record as 91%. Also, the “mTOR/FKBP12(h) % activity” value in the assay with mTOR/FKBP12(h) came to 145%.

Values taken from patent publication US10562947B2, “Compositions and methods for preventing or treating diseases, conditions or processes characterized by aberrant fibroblast proliferation and extracellular matrix deposition” (MOERAE MATRIX, INC., priority 2011, dated 2020).
